From patent US20240352105A1, “COMPOSITIONS AND METHODS FOR NEUTRALIZING ANTIGENS” (PACAGEN, INC, priority 2023, published 2024)

T1: recombinant His-tagged Der p2 (dust mite, UniProt P49278 18-146)
T1 construct: also called Der p2-His; Der p2-HIS; not shown: His tag
T1 sequence (looked up): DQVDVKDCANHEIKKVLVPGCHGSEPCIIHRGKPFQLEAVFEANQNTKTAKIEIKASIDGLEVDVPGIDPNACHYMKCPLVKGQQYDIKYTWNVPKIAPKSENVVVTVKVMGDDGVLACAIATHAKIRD

T2: recombinant His-tagged Der p1 (dust mite, UniProt P08176 99-320, limits assumed)
T2 construct: Recombinant His-tagged protein made by the applicant; also called Der p1-His; Der pl; not shown: His tag
T2 sequence (looked up): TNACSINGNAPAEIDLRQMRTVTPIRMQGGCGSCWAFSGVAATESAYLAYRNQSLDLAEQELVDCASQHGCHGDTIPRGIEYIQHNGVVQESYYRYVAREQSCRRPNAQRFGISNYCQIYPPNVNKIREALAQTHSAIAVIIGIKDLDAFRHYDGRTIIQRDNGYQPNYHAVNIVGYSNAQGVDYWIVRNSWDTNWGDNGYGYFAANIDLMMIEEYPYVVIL


Tests used:
[1] = molecular target: T1, recombinant His-tagged Der p2; test: ELISA, antigen coated
Method: (§1) 2 microgram per milliliter (μg/mL) target antigen is coated in a 96-well plate and ELISA assay is performed after incubation with candidate VHHs. The binding EC50 of each clone is calculated using Prism GraphPad. The positive control antibody is involved as an internal control.
(§2) Isolated VHH clones were further validated by performing an ELISA assay as described in Example 1. Metrics of thermostability including melting temperature (Tₘ), onset temperature (Tₒₙₛₑₜ), and temperature of aggregation (Tagg), were also tested with increasing temperature in the range of 20° C.-95° C. at the speed of 1° C./min. These measurements were performed using a Nanotemper DSF. When applicable, Tₘ1 refers to the first melting point observed, Tₘ2 refers to the second melting point observed, etc., Sequence information for the VHH clones and the binding assay results are summarized in Table 3. The individual binding curves are shown for each candidate in FIGS. 3B-3I.

[2] = Thermostability (Tm, Tonset, Tagg) by Nanotemper DSF; format: physicochemical; parameters: key to Tm2 / Tagg / Tm1 / Tm / Tm3 / Tonset / Tonset ø (mean) / Tagg ø (mean): temperatures in °C; conditions: anti-Der p2 VHH; for Tagg: 20° C.-95° C. at 1° C./min; for Tm1: first melting point observed; for Tm2: second melting point observed
Method: as §2, with “(Tm),” for “(Tₘ),”, “(Tonset),” for “(Tₒₙₛₑₜ),”, “Tm1” for “Tₘ1”, “Tm2” for “Tₘ2”
(§3) Isolated VHH clones were further validated by performing an ELISA assay as described in Example 1. Metrics of thermostability including melting temperature (Tm), onset temperature (Tonset), and temperature of aggregation (Tagg), were also tested with increasing temperature in the range of 20° C.-95° C. at the speed of 1° C./min. The individual binding curves are shown for each candidate in FIGS. 5B-5H.
as §3, with “7B-7P.” for “5B-5H.”
The detailed thermostability graphs used to determine the Tm, Tonset, and Tagg are illustrated in FIGS. 19A-19I and raw data is summarized in Table 23. Any subsequent melting points observed (Tm1, Tm2, Tm3, etc.) are separated by commas.

[3] = molecular target: T2, recombinant His-tagged Der p1; test: ELISA, antigen coated on plate
Method: as §1
Isolated VHH clones were further validated by performing an ELISA assay as described in Example 1. The individual binding curves are shown for each candidate in FIGS. 9A-9K.

[4] = molecular target: T2, recombinant His-tagged Der p1; test: cell-based or functional assay

| Molecule | EC50 [1] [µg/mL] | Tagg [2] | Tm1 ([2]; in °C (unit assumed)) | Tm2 ([2]; in °C (unit assumed)) | EC50 [3] [µg/mL] | Maximum Rate of Blocking [4] | also measured |
| --- | --- | --- | --- | --- | --- | --- | --- |
| SDAB22111-1-B1 (VHH, anti-Der p2 alpaca VHH; prokaryotic expression) VHH: DVQLVESGGGLVQPGGSLRLSCAASGFTFALYSMRWYRQAPGKERELVAAITSGRSTNYADSVKGRFTISRDNAKNTVYLQMNSLKPEDTAVYHCNARHPIATLGNYWGQGTPVTVSS | 8.23 | – | – | – | – | – | – |
| SDAB22111-1-D6 (VHH, anti-Der p2 alpaca VHH; prokaryotic expression) VHH: DVQLVESGGGLVQPGGSLRLSCVASGLTFSYYDMKWHRQAPGKERELVAAIIEGGRTMYADSVKGRFTISRDSPKKSVYLQMNNLKSEDTAVYYCNAVRARFRGLGNDDAWGQGTQVTVSS | 9.66 | 41.57 | 49.02 | 62.55 | – | – | – |
| SDAB22111-1-D3 (VHH, anti-Der p2 alpaca VHH; prokaryotic expression) VHH: QLQLVESGGGLVQPGGSLRLSCVVSGRTLSGHNMGWFRQAPGKEREFVARINSNGGTTRYADAVKGRFTISRDNAKNTAYLQMNSLKSEDTAVYYCRLVGPAGYWGQGTQVTVSS | 8.41 | 42.45 | 53.78 | 69.76 | – | – | – |
| SDAB22111-1-F9-B03 (VHH, anti-Der p2 alpaca VHH; prokaryotic expression) VHH: EVQLVESGGGLVQPGGSLRLSCAASGRTFSSYAMGWFRQAPGKEREFVAGISRRGSNIYYADSVKGRFTISRDNAKNTVYLQMNSLKPEDTAVYYCNARHPRISTRLYWGQGTQVTVSS | 15.9 | 40.04 | – | – | – | – | Tm ([2]; single melting point, in °C (unit assumed)): 71.38 |
| SDAB22111-1-E10 (VHH, anti-Der p2 alpaca VHH; prokaryotic expression) VHH: QLQLVESGGGMVQPGGSLRLSCAASGTLFSTALMGWYRQAPGKQRTLVASITDGGSTNYVDSVKGRFTISRDNEKNTVYLQMNSLKFEDTAVYYCNAHWGSYDYWGQGTQVVVSS | 6.57 | – | – | – | – | – | – |
| SDAB22111-1-C1 (VHH, anti-Der p2 alpaca VHH; prokaryotic expression) VHH: QVQLVESGGGLVQPGGSLRLSCAASASFVGAYAMYWFRQATGKQRELVAFITSGNSTNYADSVKGRFTISRDYTKNTVYLQMNKLKPEDTAVYSCNLVTSRGDYWGQGTQVTVSS | 1.11 | 43.53 | 54.52 | 66.51 | – | – | – |
| SDAB22129-55-35-46-49-1-C12 (VHH, Expressed from a prokaryotic vector) VHH: QVQLVESGGGLVQAGGSLRLSCAASGRTFSSYAMGWFRQAPGKEREFVAIISNTGGLTDYAHSVKGRFTISRDNAKNTGYLQMNSLKPEDTALYYCAADFLGPKSWPSYWGQGTQVTVSS | – | – | – | – | 4.95 | 91.6 | – |
| SDAB22129-55-35-46-49-1-H08 (VHH, Expressed from a prokaryotic vector) VHH: EVQLVESGGGLVQAGGSLTLSCGRTTSIWGMGWFRQGRGKEREFVAAITPSGSITFYSDHVKGRFTVSRDNALNTVYLQMNSLKPEDTAVYYCARRGSSGSYYWAGSYEAWGQGTQVTVSS | – | – | – | – | 16.5 | 92.8 | – |
| SDAB22129-55-35-46-49-1-G02 (VHH, Expressed from a prokaryotic vector) VHH: QLQLVESGGGLVQAGGSLRLSCTASGRTFRNFGMGWFRQAPGKERKLVASISYVGGNTDYADSVKGRFTISMDNAKNTVVLQMNSLKPEDTAMYYCAARNPNRNEYPWWGQGTQVTVSS | – | – | – | – | 4.21 | 85.2 | – |
| SDAB22129-55-35-46-49-1-G07 (VHH, Expressed from a prokaryotic vector) VHH: QVQLVESGGGLVQAGGSLRLSCAASGRTFSSYAMGWFRQAPGKERELVATISWSGGSTYYADSVKGRFTISRDNAKNTGFLQMNSLKPEDTAVYYCAADFASTVGTPLTRPAYWGQGTQVTVSS | – | – | – | – | 0.485 | 93.3 | – |
| SDAB22111-1-H12 (VHH, anti-Der p2 alpaca VHH; prokaryotic expression) VHH: QVQLVESGGGLVQPGGSLRLSCAASRSIDRFPAMGWYRQAPGKKRELVAAISSANTRTKYADSVKGRFTISRDNAENTMYLQMNSLKPEDTAVYYCNVFPRPVQGYWGQGTQVTVSS | 2.67 | 43.37 | 51.93 | 59.13 | – | – | Tm3 ([2]; third melting point, in °C (unit assumed)): 68.62 |
| SDAB22111-1-F9 (VHH, anti-Der p2 alpaca VHH; prokaryotic expression) VHH: QVQLVESGGGLVQPGGSLRLSCAASGRIFRPDGMAWYRQAPGKQREFVAGITRGGRTTYADSVKGRFTISRDNAENTVYLQMNSLKPEDTAVYYCNAKPSAWTLPRYRYDYWGQGTQVTVSS | 4.95 | – | – | – | – | – | – |
